{
  "source": "patent US20170319655A1",
  "about": "(UNIVERSITY OF MARYLAND BALTIMORE, published 2017)",
  "binders": {"B1": {"name": "Pseudomonas aeruginosa (Pa) flagellin purified from Pa strain PA01, Alexa Fluor 594-labeled (ligand)", "chain": "MALTVNTNIASLNTQRNLNASSNDLNTSLQRLTTGYRINSAKDDAAGLQISNRLSNQISGLNVATRNANDGISLAQTAEGALQQSTNILQRIRDLALQSANGSNSDADRAALQKEVAAQQAELTRISDTTTFGGRKLLDGSFGTTSFQVGSNAYETIDISLQNASASAIGSYQVGSNGAGTVASVAGTATASGIASGTVNLVGGGQVKNIAIAAGDSAKAIAEKMDGAIPNLSARARTVFTADVSGVTGGSLNFDVTVGSNTVSLAGVTSTQDLADQLNSNSSKLGITASINDKGVLTITSATGENVKFGAQTGTATAGQVAVKVQGSDGKFEAAAKNVVAAGTAATTTIVTGYVQLNSPTAYSVSGTGTQASQVFGNASAAQKSSVASVDISTADGAQNAIAVVDNALAAIDAQRADLGAVQNRFKNTIDNLTNISENATNARSRIKDTDFAAETAALSKNQVLQQAGTAILAQANQLPQAVLSLLR", "modifications": "Alexa Fluor 594 label (site not stated)", "notes": "also called purified flagellin; Alexa Fluor 594-flagellin"}},
  "key": {"[1]": {"target": "T1, MUC1-ED on Ad-NEU1-infected airway epithelial cells (A549 cells; SAECs), desialylated by overexpressed NEU1 (human, UniProt P15941 24-1255, glycans desialylated by overexpressed NEU1)", "T1 construct": "Endogenous MUC1 of human airway ECs that overexpress NEU1; also called Ad-NEU1-infected ECs", "T1 sequence (P15941 24-1255 limits assumed)": "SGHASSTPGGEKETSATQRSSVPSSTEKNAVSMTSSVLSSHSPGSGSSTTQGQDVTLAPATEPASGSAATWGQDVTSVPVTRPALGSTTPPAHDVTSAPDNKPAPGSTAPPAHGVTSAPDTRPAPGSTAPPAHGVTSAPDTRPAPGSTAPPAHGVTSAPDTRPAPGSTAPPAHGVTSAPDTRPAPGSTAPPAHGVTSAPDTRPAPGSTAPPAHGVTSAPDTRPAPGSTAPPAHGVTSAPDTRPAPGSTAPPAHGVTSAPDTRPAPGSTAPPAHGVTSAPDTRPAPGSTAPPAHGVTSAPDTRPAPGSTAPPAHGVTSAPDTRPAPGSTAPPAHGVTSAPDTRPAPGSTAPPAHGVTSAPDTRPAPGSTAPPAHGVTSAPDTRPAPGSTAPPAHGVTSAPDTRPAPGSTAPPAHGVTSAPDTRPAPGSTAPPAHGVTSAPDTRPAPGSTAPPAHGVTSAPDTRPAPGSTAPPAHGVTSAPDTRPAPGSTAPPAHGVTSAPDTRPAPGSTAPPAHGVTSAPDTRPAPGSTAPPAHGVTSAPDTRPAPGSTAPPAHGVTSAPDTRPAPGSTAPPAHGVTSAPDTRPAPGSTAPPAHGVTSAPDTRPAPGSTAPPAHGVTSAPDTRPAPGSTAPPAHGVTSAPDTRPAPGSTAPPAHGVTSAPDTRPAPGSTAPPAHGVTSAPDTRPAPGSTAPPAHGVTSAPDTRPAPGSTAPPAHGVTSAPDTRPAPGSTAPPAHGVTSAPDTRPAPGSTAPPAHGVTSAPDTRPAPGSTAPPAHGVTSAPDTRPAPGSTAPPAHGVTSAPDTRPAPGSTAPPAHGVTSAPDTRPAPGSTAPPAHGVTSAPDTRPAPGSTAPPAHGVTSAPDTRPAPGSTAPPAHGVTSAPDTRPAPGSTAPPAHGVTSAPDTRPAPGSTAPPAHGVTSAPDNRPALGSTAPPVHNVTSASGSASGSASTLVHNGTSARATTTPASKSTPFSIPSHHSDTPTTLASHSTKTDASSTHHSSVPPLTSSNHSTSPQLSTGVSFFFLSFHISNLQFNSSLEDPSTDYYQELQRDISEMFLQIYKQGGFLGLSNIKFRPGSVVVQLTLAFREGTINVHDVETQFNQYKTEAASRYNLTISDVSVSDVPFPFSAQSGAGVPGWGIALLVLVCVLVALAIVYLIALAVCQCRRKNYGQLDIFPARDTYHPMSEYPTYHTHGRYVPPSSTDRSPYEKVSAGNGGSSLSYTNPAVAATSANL", "test": "Scatchard transformation of Alexa Fluor 594-flagellin binding to A549 cells"}, "[2]": {"target": "T2, MUC1-ED on Ad-GFP-infected airway epithelial cells (A549 cells; SAECs) (human, UniProt P15941 24-1255, endogenous sialylated glycans (alpha2,3- and alpha2,6-linked sialic acid))", "T2 construct": "Endogenous MUC1 of human airway ECs; also called Ad-GFP-infected ECs", "T2 sequence (P15941 24-1255 limits assumed)": "as above", "test": "Alexa Fluor 594-flagellin binding to Ad-GFP-infected A549 cells, 40 min at 4 C, fluorometry, Scatchard transformation; receptor named by the filing as MUC1-ED"}, "[3]": {"target": "T1, MUC1-ED on Ad-NEU1-infected airway …", "test": "Alexa Fluor 594-flagellin binding to Ad-NEU1-infected A549 cells, 40 min at 4 C, fluorometry, Scatchard transformation; receptor named by the filing as MUC1-ED"}},
  "data": [
    {"binder": "B1", "values": [
      {"measurement": "fold reduction in Kd against Ad-GFP-infected ECs", "setting": "[1]", "value": 2.9, "unit": "fold"},
      {"measurement": "Kd", "setting": "[2]", "value": 7.35, "unit": "nM"},
      {"measurement": "Kd", "setting": "[3]", "value": 2.54, "unit": "nM"}
    ]}
  ]
}
